Measured values: doi:10.1101/714493

What was measured:
Assay in all cases: SEC
[1] = target: Bile Salt Hydrolase from Enterococcus faecalis, wild type (Enterococcus faecalis)
[2] = target: EfBSH E269A (Enterococcus faecalis)
[3] = target: EfBSH E269D (Enterococcus faecalis)
[4] = target: EfBSH E269Q (Enterococcus faecalis)
[5] = target: EfBSH R207A (Enterococcus faecalis)

“Bile Salt Hydrolase from Enterococcus faecalis, wild type (enzyme)” gave a stoichiometry N [1] of 4.

Substance EfBSH E269A (enzyme) has a stoichiometry N [2] of 4.

With EfBSH E269D (enzyme) the stoichiometry N [3] was 4.

With EfBSH E269Q (enzyme) the stoichiometry N [4] was 4.

With EfBSH R207A (enzyme) the stoichiometry N [5] was 4.
